Source: US20060099689

Experiments:
[1] = target: H-GST-DEVD/mLIF, P09056
[2] = target: fusion protein of GST and mLIF where the DEVD site is preceded by a GPGS sequence (L1: GPGSDEVD), P09056
[3] = target: fusion protein of GST and mLIF with only the DEVD site in the linker (L0: DEVD), P09056
[4] = target: H-GST-DEVD/S-mLIF, P09056
[5] = target: GST-C-hIFNα
[6] = target: the 20 fusion proteins of the formula H-GST-DEVD/X-mLIF, where X is any of the possible 20 amino acids
[7] = target: MBP-L0-hIFNalpha

Protein | efficiency of cleavage [1] | percent of fusion product processed (densitometric scanning of the gel) [2] | processing yield (densitometric scanning of the gel) [3] | amount of enzyme sufficient to process 10 microgram of fusion protein [4] | time needed for processing [4] | processing of the fusion protein (gel, FIG. 3b) [5] | amount of enzyme sufficient to process 10 microgram of fusion protein [1] | percent of fusion protein processed (50 ng enzyme, 45 minutes) [1] | time needed for processing [1] | cleavage of P1′ variants (gel, FIG. 6) [6] | percent of fusion protein processed (2 microgram enzyme on 10 microgram substrate) [7]
murine caspase 7 (protein) chain 1: AKPDRSSIISSILLKKKRNASAGPVRTGRDRVPTYLYRMDFQKMGKCIIINNKNFDKATGMDVRNGTDKDAGALFKCFQNLGFEVTVHNDCSCAKMQDLLRKASEEDHSNSACFACVLLSHGEEDLIYGKDGVTPIKDLTAHFRGDRCKTLLEKPKLFFIQACRGTELDDGIQAD chain 2: ANPRNKIPVEADFLFAYSTVPGYYSWRNPGKGSWFVQALCSILNEHGKDLEIMQILTRVNDRVARHFESQSDDPRFNEKKQIPCMVSMLTKELYFSR | the murine caspase 7 was not as active as the murine caspase 3 and more enzyme needed to be added to obtain the same efficiency of cleavage | – | – | – | – | – | – | – | – | – | –
murine Caspase-3 (protein) chain 1: SGIYLDSSYKMDYPEMGICIIINNKNFHKSTGMSSRSGTDVDAANLRETFMGLKYQVRNKNDLTREDILELMDSVSKEDHSKRSSFVCVILSHGDEGVIYGTNGPVELKKLTSFFRGDYCRSLTGKPKLFIIQACRGTELDCGIETD chain 2: SGTDEEMACQKIPVEADFLYAYSTAPGYYSWRNSKDGSWFIQSLCSMLKLYAHKLEFMHILTRVNRKVATEFESFSLDSTFHAKKQIPCIVSMLTKELYFYH | – | 90% of the fusion product containing L1 was processed | only 10% processing yield was seen under these conditions when using the L0 linker | as little as 50 ng of enzyme is sufficient to process 10 microgram of protein | the reaction was finished after 45 minutes when using Caspase-3 | Caspase-3 on the other hand gave a high yield of processing even after only 45 minutes of incubation | as little as 50 ng of enzyme is sufficient to process 10 microgram of protein | An amount of 50 ng is sufficient to process >90% of 10 microgram of a GST-mLIF fusion protein | the reaction was finished after 45 minutes when using Caspase-3 | all amino acids in the P1′ position could be processed by Caspase-3 | 2 microgram of caspase 3 is needed to process only 50% of 10 microgram of MBP-L0-hIFNalpha
